Measurements: paper PMC5383399, “Kinesin-4 KIF21B is a potent microtubule pausing factor” (eLife, 2017)
Blank lines part the entries; values can stand above or below the molecule they belong to.

Legend:
[1] = molecular target: KIF21B-MD-CC1-GFP (purified) (human); assay: single-molecule fluorescence intensity and photobleaching-step analysis (TIRF); purified GFP fusions diluted in PBS and immobilized on plasma-cleaned coverslips, room temperature; compared with monomeric GFP and dimeric GFP-EB3
[2] = molecular target: KIF21B-MD-CC1-GFP (purified) (human); assay: single-molecule fluorescence intensity analysis (TIRF); GFP-tagged motors moving on MTs, compared with single GFP immobilized, or KIF5B-560-GFP moving, in a separate chamber on the same coverslip; 15 µM tubulin, 20 nM mCherry-EB3, MRB80 with 50 mM KCl, 30°C
[3] = molecular target: KIF21B-FL-GFP (full-length KIF21B-GFP) (human); assay: single-molecule fluorescence intensity and photobleaching-step analysis (TIRF); purified GFP fusions diluted in PBS and immobilized on plasma-cleaned coverslips, room temperature; compared with monomeric GFP and dimeric GFP-EB3
[4] = molecular target: KIF21B-FL-GFP (full-length KIF21B-GFP) (human); assay: single-molecule fluorescence intensity analysis (TIRF); GFP-tagged motors moving on MTs, compared with single GFP immobilized, or KIF5B-560-GFP moving, in a separate chamber on the same coverslip; 15 µM tubulin, 20 nM mCherry-EB3, MRB80 with 50 mM KCl, 30°C
[5] = molecular target: KIF21B-FL-ΔrCC-GFP (human); assay: single-molecule fluorescence intensity and photobleaching-step analysis (TIRF); purified GFP fusions diluted in PBS and immobilized on plasma-cleaned coverslips, room temperature; compared with monomeric GFP and dimeric GFP-EB3
[6] = molecular target: KIF21B-MD-CCΔrCC-GFP (human); assay: as above
[7] = molecular target: the molecule itself; assay: single-molecule fluorescence intensity analysis (TIRF); GFP-tagged motors moving on MTs, compared with single GFP immobilized, or KIF5B-560-GFP moving, in a separate chamber on the same coverslip; 15 µM tubulin, 20 nM mCherry-EB3, MRB80 with 50 mM KCl, 30°C

stoichiometry N [3]: 2
stoichiometry N [4]: 2
Molecule: KIF21B-FL-GFP (full-length KIF21B-GFP) (natural protein)

stoichiometry N [5]: 2
Molecule: KIF21B-FL-ΔrCC-GFP (natural protein)

stoichiometry N [6]: 2
Molecule: KIF21B-MD-CCΔrCC-GFP (domain or fragment)

More lines, now with the values behind:

Molecule: KIF21B-MD-CC1-GFP (purified) (domain or fragment)
stoichiometry N [1]: 2
fluorescence intensity relative to single monomeric GFP [2]: 1.8 fold

B1: KIF5B-560-GFP (domain or fragment, UniProt P33176 1-560, looked up)
chain: MADLAECNIKVMCRFRPLNESEVNRGDKYIAKFQGEDTVVIASKPYAFDRVFQSSTSQEQVYNDCAKKIVKDVLEGYNGTIFAYGQTSSGKTHTMEGKLHDPEGMGIIPRIVQDIFNYIYSMDENLEFHIKVSYFEIYLDKIRDLLDVSKTNLSVHEDKNRVPYVKGCTERFVCSPDEVMDTIDEGKSNRHVAVTNMNEHSSRSHSIFLINVKQENTQTEQKLSGKLYLVDLAGSEKVSKTGAEGAVLDEAKNINKSLSALGNVISALAEGSTYVPYRDSKMTRILQDSLGGNCRTTIVICCSPSSYNESETKSTLLFGQRAKTIKNTVCVNVELTAEQWKKKYEKEKEKNKILRNTIQWLENELNRWRNGETVPIDEQFDKEKANLEAFTVDKDITLTNDKPATAIGVIGNFTDAERRKCEEEIAKLYKQLDDKDEEINQQSQLVEKLKTQMLDQEELLASTRRDQDNMQAELNRLQAENDASKEEVKEVLQALEELAVNYDQKSQEVEDKTKEYELLSDELNQKSATLASIDAELQKLKEMTNHQKKRAAEMMASLLK
notes: KIF5B (kinesin-1), residues 1–560; also called N-terminal fragment of kinesin-1, KIF5B residues 1–560; not shown: GFP, C-terminal, kept
fluorescence intensity relative to single monomeric GFP [7]: ~1.8 fold
stoichiometry N [7]: 2
